Legend:
[1] = target: T1, human BCMA on myeloma cells (H929, U266, patient bone marrow myeloma plasma cells) (human, UniProt Q02223 1-184); experiment: cell-based or functional assay
T1 sequence (looked up): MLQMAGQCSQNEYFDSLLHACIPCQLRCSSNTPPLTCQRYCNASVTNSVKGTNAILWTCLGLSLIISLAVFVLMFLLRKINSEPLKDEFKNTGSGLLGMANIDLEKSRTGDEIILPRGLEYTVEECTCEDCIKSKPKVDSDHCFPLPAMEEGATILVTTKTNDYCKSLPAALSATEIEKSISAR

[2] = target: T1, human BCMA on myeloma cells (H929, …); experiment: cell-based or functional assay; remark: listed apart in the source

B1: pSCHLI333-TCB CLC (bispecific antibody)
heavy 1: not shown
heavy 2: QVQLVQSGAEVKKPGASVKVSCKASGYMFSSFGMSWVRQAPGQGLEWMGWIYPVGQGTWYAQKFQGRVTMTRDTSTSTVYMELSSLRSEDTAVYYCARVSYPPSHFDYWGQGTLVTVSSASTKGPSVFPLAPSSKSTSGGTAALGCLVKDYFPEPVTVSWNSGALTSGVHTFPAVLQSSGLYSLSSVVTVPSSSLGTQTYICNVNHKPSNTKVDKKVEPKSCDKTHTCPPCPAPEAAGGPSVFLFPPKPKDTLMISRTPEVTCVVVDVSHEDPEVKFNWYVDGVEVHNAKTKPREEQYNSTYRVVSVLTVLHQDWLNGKEYKCKVSNKALGAPIEKTISKAKGQPREPQVCTLPPSRDELTKNQVSLSCAVKGFYPSDIAVEWESNGQPENNYKTTPPVLDSDGSFFLVSKLTVDKSRWQQGNVFSCSVMHEALHNHYTQKSLSLSPGK
light: QAVVTQEPSLTVSPGGTVTLTCGSSTGAVTTSNYANWVQEKPGQAFRGLIGGTNKRAPGTPARFSGSLLGGKAALTLSGAQPEDEAEYYCALWYSNLWVFGGGTKLTVLGQPKAAPSVTLFPPSSEELQANKATLVCLISDFYPGAVTVAWKADSSPVKAGVETTTPSKQSNNKYAASSYLSLTPEQWKSHRSYSCQVTHEGSTVEKTVAPTECS
- EC50 (pM) for redirected T-cell killing of H929 cells (LDH release) [1]: 980 pM
- EC50 (µg/ml) for redirected T-cell killing of H929 cells (LDH release) [1]: 0.19 µg/mL

B2: pSCHLI372-TCB CLC (bispecific antibody)
heavy 1: not shown
heavy 2: EVQLVESGGGLVKPGGSLRLSCAASGFTFSNSGMIWVRQAPGKGLEWVGHIRSKTDGGTTDYAAPVKGRFTISRDDSKNTLYLQMNSLKTEDTAVYYCTTGGSGSFDYWGQGTLVTVSSASTKGPSVFPLAPSSKSTSGGTAALGCLVKDYFPEPVTVSWNSGALTSGVHTFPAVLQSSGLYSLSSVVTVPSSSLGTQTYICNVNHKPSNTKVDKKVEPKSCDKTHTCPPCPAPEAAGGPSVFLFPPKPKDTLMISRTPEVTCVVVDVSHEDPEVKFNWYVDGVEVHNAKTKPREEQYNSTYRVVSVLTVLHQDWLNGKEYKCKVSNKALGAPIEKTISKAKGQPREPQVCTLPPSRDELTKNQVSLSCAVKGFYPSDIAVEWESNGQPENNYKTTPPVLDSDGSFFLVSKLTVDKSRWQQGNVFSCSVMHEALHNHYTQKSLSLSPGK
light: B1 light
- EC50 (pM) for redirected T-cell killing of H929 cells (LDH release), Experiment 1 [1]: 450 pM
- EC50 (pM) for redirected T-cell killing of H929 cells (LDH release), Experiment 2 [1]: 900 pM
- EC50 (µg/ml) for redirected T-cell killing of H929 cells (LDH release), Experiment 1 [1]: 0.08 µg/mL
- EC50 (µg/ml) for redirected T-cell killing of H929 cells (LDH release), Experiment 2 [1]: 0.17 µg/mL
- EC50 (pM) for redirected T-cell killing of U266 cells (LDH release) [2]: 5700 pM
- EC50 (µg/ml) for redirected T-cell killing of U266 cells (LDH release) [2]: 1.1 µg/mL
